Source: publication PMC11157053

Each sequence was assayed against T1, His6-LexA (Streptomyces mobaraensis NBRC 13819) (UniProt A0A5N5W758) (assay: EMSA). Conditions: EMSA: 0, 100, 200 ng His6-LexA, 25 nM probe, 20 uL; 30 mM KCl, 10 mM Tris-HCl (pH not stated), 0.4 mM DTT, 2 mM MgCl2, 0.2 mM EDTA, 2% glycerol; 30 min, 30 C ….
T1 sequence: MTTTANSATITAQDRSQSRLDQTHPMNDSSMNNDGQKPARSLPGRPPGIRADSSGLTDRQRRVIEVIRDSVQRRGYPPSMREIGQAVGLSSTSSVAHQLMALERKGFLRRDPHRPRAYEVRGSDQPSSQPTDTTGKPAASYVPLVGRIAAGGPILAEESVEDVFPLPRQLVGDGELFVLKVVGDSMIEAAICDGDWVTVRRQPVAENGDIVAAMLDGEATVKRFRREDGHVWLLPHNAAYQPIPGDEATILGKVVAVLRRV

binding, binds:
CAGGCTGGTACTGATCGTCACCTGCGCGATTGGCGAGACACCTGCTGAGCAGACCGCCGCGGACCATCTCGGACACCTGCCCGACCGCTGCATTCGCCAACCGCCTCCGCACTCTCAACGACG (double strand) [Probe whiB (123 bp)]
CGGTGTGGAAGGTGGCGTGTACGGCATACGGATCGGAAGTGTCGTACCGCAGACCTGCGGGTACAGGCAGTGACGATTCGCTCGACACAACGAGGCGCAGGTGCAG (double strand) [Probe ssgA (106 bp)]
GAAAAGCGAACCAATTGGAATGTGGGGCCGGAACGGGAGGTCAGGCGTTCGACGTCACACTCCGCAGGGTACCGCTCACAGCCCGAAGCGGCGCTGGAGGTCTCCCAACTG (double strand) [Probe marR1 (112 bp)]
